Test results from article PMC13335422 (The Journal of Experimental Medicine, 2026).

T1: Recombinant Bet v1 (major birch pollen allergen Bet v1) (birch, biotin (biotinylated rBet v1 in the flow cytometry and in the IgE-blocking ELISA; site not stated))
T1 construct: Bet v1, major allergen of birch pollen (PR-10 family); codon-optimized synthetic gene in pET29b; PDB 4A81 was the Bet v1 model fitted into the cryo-EM map; One molecule for the plain and the biotinylated protein: same construct; also called rBet v1; biotinylated rBet v1
T1 chain: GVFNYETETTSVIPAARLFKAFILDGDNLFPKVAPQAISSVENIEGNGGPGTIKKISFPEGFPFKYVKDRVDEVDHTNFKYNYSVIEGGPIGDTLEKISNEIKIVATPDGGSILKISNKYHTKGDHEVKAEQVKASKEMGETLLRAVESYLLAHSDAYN


Key:
[1] = molecular target: Recombinant Bet v1 (major birch pollen allergen Bet v1) (birch) (UniProt P15494); test: BLI
[2] = molecular target: Recombinant Bet v1 (major birch pollen allergen Bet v1) (birch) (UniProt P15494); test: ELISA
[3] = molecular target: T1, Recombinant Bet v1 (major birch pollen …); test: cryo-EM structure; Bet v1 complexed with threefold molar excess of Fab08 and Fab10; reconstruction at 4.8 Å, Cα positioning; details: both partners purified
[4] = molecular target: T1, Recombinant Bet v1 (major birch pollen …); test: flow cytometry on cells; transduced primary human T cells stained with biotinylated rBet v1 (1 μg/ml) and streptavidin-PE, 30 min at 4°C; mCherry reporter; details: one partner purified

| Molecule | EC50 [2] [ng/mL] | binding result [4] | other results |
| --- | --- | --- | --- |
| mAb 11 (human anti-Bet v1 IgG monoclonal antibody) (from UniProt P01857) | 4.26 |  | Kd [1]: 3.61 nM |
| eB20 (human anti-Bet v1 antibody from an IgE clone) (from UniProt P01857) | 8.89 |  |  |
| mAb 10 (human anti-Bet v1 IgG monoclonal antibody) (from UniProt P01857) | 7.26 |  |  |
| Fab08 (Fab of mAb 8) (Fab, V domains shown, heavy variable domain as the heavy chain of m3 (mAb 8, IGHV5-51); constant part of the Fab heavy chain; as the light chain of m3 (mAb 8, IGKV1-39); The production of the Fabs is not described) VH: EVQLVQSGAEVKKPGDSLKISCKGSGYSFSNFWIGWVRQMPGKGLELMGIVYPGDSDTKYRPSFLGQVTISADKSIATAFLQWSRLTASDTAIYYCARLGATYAGADFWGQGTLVTVSS VL: DIQMTQSPSSLSASVGDRVTITCRASQTIVTYLNWYQQKPGKAPKLLIYAASNLQSGVPSRFSGSGSGTDFTLTISSLQPEDFAIYYCQQSYAAFGEGTKVEIK |  |  | binding result [3]: binds |
| Fab10 (Fab of mAb 10) (Fab, V domains shown, heavy variable domain as the heavy chain of m4 (mAb 10); constant part of the Fab heavy chain; as the light chain of m4 (mAb 10); The production of the Fabs is not described) VH: EVQLVESGGGLVQPGGSLRLSCTASGFTFSSYMTHWVRQAPGKGLEWVSHISGDGTNTTYADTVKGRFFTSRDNVKNTLFLQMDSLRAEDTAVYFCARGSWYTTGWHRNYYFGMDVWGQGTTVTVSS VL: DIVMTQSPLSLPVTPGEPASISCRSSQSLLHSNGYNYLDWYLQKPGRSPQLLIYLGSHRASGVPDRFSGDGSGTDFTLKISRVEAEDVGVYYCMQVLQTPSFGGGTKVEIK |  |  | binding result [3]: binds |
| CAlleR 5 (anti-Bet v1 chimeric allergen receptor with the scFv of mAb 5, CD28 and CD3ζ domains) (other, scFv derived from mAb 5 (variable domains as in m2; GenBank within PZ143166-PZ143179); CD28 hinge, transmembrane and intracellular (costimulatory) domains; CD3ζ intracellular signaling domain; Second-generation CAR design in pCDH-EF1-FHC (Addgene 64874), as in Muller et al., 2021a; source: primary human T cells, lentivirally transduced, on cells) VH: EVQLVQSGAEVKKPGESLNISCNGSGYNFTKYWIAWVRQMPGKGLEWMGIIYPGDSDTKYRPSFQGQVTISADKSITTAYLQWSRLKVSDTAIYYCARLGATYGGADYWGQGTLVTVSS VL: DIQMTQSPSSLSASVGDRVTITCQASQSIVNYLNWYQQKPGKAPKLLIYAASSLQSGVPSRFSGSGSGTDFTLTISSLQPEDFATYYCQQSYAAFGEGTKVEIT |  | binds |  |
| CAlleR 8 (anti-Bet v1 chimeric allergen receptor with the scFv of mAb 8, CD28 and CD3ζ domains) (other, scFv derived from mAb 8 (variable domains as in m3; GenBank within PZ143166-PZ143179); CD28 hinge, transmembrane and intracellular (costimulatory) domains; CD3ζ intracellular signaling domain; Second-generation CAR design in pCDH-EF1-FHC (Addgene 64874), as in Muller et al., 2021a; The murine CAlleR 8 (mouse CD28 and CD3ζ domains) is another construct and has no row; source: primary human T …) VH: EVQLVQSGAEVKKPGDSLKISCKGSGYSFSNFWIGWVRQMPGKGLELMGIVYPGDSDTKYRPSFLGQVTISADKSIATAFLQWSRLTASDTAIYYCARLGATYAGADFWGQGTLVTVSS VL: DIQMTQSPSSLSASVGDRVTITCRASQTIVTYLNWYQQKPGKAPKLLIYAASNLQSGVPSRFSGSGSGTDFTLTISSLQPEDFAIYYCQQSYAAFGEGTKVEIK |  | binds |  |
| CAlleR 10 (anti-Bet v1 chimeric allergen receptor with the scFv of mAb 10, CD28 and CD3ζ domains) (other, scFv derived from mAb 10 (variable domains as in m4; GenBank within PZ143166-PZ143179); CD28 hinge, transmembrane and intracellular (costimulatory) domains; CD3ζ intracellular signaling domain; Second-generation CAR design in pCDH-EF1-FHC (Addgene 64874), as in Muller et al., 2021a; source: primary human T cells, lentivirally transduced, on cells) VH: EVQLVESGGGLVQPGGSLRLSCTASGFTFSSYMTHWVRQAPGKGLEWVSHISGDGTNTTYADTVKGRFFTSRDNVKNTLFLQMDSLRAEDTAVYFCARGSWYTTGWHRNYYFGMDVWGQGTTVTVSS VL: DIVMTQSPLSLPVTPGEPASISCRSSQSLLHSNGYNYLDWYLQKPGRSPQLLIYLGSHRASGVPDRFSGDGSGTDFTLKISRVEAEDVGVYYCMQVLQTPSFGGGTKVEIK |  | binds |  |
| CAlleR 11 (anti-Bet v1 chimeric allergen receptor with the scFv of mAb 11, CD28 and CD3ζ domains) (other, scFv derived from mAb 11 (variable domains as in m5; GenBank within PZ143166-PZ143179); CD28 hinge, transmembrane and intracellular (costimulatory) domains; CD3ζ intracellular signaling domain; Second-generation CAR design in pCDH-EF1-FHC (Addgene 64874), as in Muller et al., 2021a; source: primary human T cells, lentivirally transduced, on cells) VH: EVELLESGGGLVQPGGSLRLSCVGSGFTFPSYAMTWVRQAPGKGLEWVSAISGGGENSGGSTYYADSVKGRFTISRDNSKNTLFLQMSSLRAEDTAVYYCTREPVSWAFGSGTEYFDYWGQGTLVTVSS VL: QSVLTQPPSASGTPGQRVTISCSGSSSNIGSNTVTWYHQLPGTAPKLLIYNNHRRPSGVPDRFSGSKSGTAASLGISGLQSEDEAAYYCATWDDSLKGWVFGGGTKLTVL |  | binds |  |
